Assay results as given in the supplement of paper PMC9112550, “Optimization of the antimicrobial peptide Bac7 by deep mutational scanning” (BMC Biology, 2022).

Test system: Escherichia coli TOP10
Test: shrunken log2 fold change of peptide-encoding DNA abundance (4.5 h post-induction vs induction); higher = less antimicrobial activity (less host growth inhibition)
Settings: time post-induction: 4.5 h; library: site-saturation at positions 5, 18, 19, 20
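Note: peptides expressed intracellularly from a pBAD plasmid library in pooled LB shake-flask culture, induced with 0.3% L-arabinose, DNA abundance read by NGS, three biological replicates, DESeq2 with apeglm shrinkage.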

Sequence	shrunken log2 fold change
RRIRDRPPRLPRPRPRPITQPRP	0.000804
RRIRFRPPRLPRPRPRPNPHPRP	-0.428
RRIRKRPPRLPRPRPRPNNEPRP	0.0823
RRIRDRPPRLPRPRPRPDPNPRP	0.00812
RRIRMRPPRLPRPRPRPHWDPRP	-0.145
RRIRNRPPRLPRPRPRPRKFPRP	-0.101
RRIRNRPPRLPRPRPRPCQCPRP	-0.00992
RRIRNRPPRLPRPRPRPLNRPRP	-0.327
RRIRYRPPRLPRPRPRPIIEPRP	-0.643
RRIRKRPPRLPRPRPRPSCMPRP	-0.0405
RRIRGRPPRLPRPRPRPWDLPRP	-0.0503
RRIRIRPPRLPRPRPRPDFNPRP	-0.701
RRIRNRPPRLPRPRPRPCCTPRP	2.47
RRIRQRPPRLPRPRPRPKTQPRP	0.121
RRIRYRPPRLPRPRPRPCTPPRP	-1.14
RRIRSRPPRLPRPRPRPAYDPRP	-0.477
RRIRQRPPRLPRPRPRPTDQPRP	0.411
RRIRSRPPRLPRPRPRPDNIPRP	-0.347
RRIRDRPPRLPRPRPRPDHIPRP	-0.0651
RRIRSRPPRLPRPRPRPIKGPRP	-0.00753
RRIRKRPPRLPRPRPRPTDFPRP	0.118

Sequence	shrunken log2 fold change
RRIRNRPPRLPRPRPRPACCPRP	0.236
RRIRERPPRLPRPRPRPALMPRP	0.129
RRIRYRPPRLPRPRPRPIKQPRP	-0.0386
RRIRCRPPRLPRPRPRPGEIPRP	0.183
RRIRERPPRLPRPRPRPHAYPRP	-0.352
RRIRKRPPRLPRPRPRPVNLPRP	-0.0889
RRIRFRPPRLPRPRPRPAVNPRP	-0.106
RRIRRRPPRLPRPRPRPIEKPRP	0.149
RRIRNRPPRLPRPRPRPTNYPRP	-0.73
RRIRFRPPRLPRPRPRPCTEPRP	-0.431
RRIRIRPPRLPRPRPRPVKGPRP	-0.0688
RRIRTRPPRLPRPRPRPRLHPRP	0.0546
RRIRQRPPRLPRPRPRPNVDPRP	-0.0229
RRIRARPPRLPRPRPRPEHKPRP	0.0692
RRIRMRPPRLPRPRPRPYANPRP	-0.139
RRIRRRPPRLPRPRPRPRYTPRP	-0.186
RRIRQRPPRLPRPRPRPRFHPRP	-0.177
RRIRLRPPRLPRPRPRPNDSPRP	-0.0215
RRIRDRPPRLPRPRPRPGKNPRP	-0.543
RRIRIRPPRLPRPRPRPEHLPRP	-0.105
RRIRLRPPRLPRPRPRPVPFPRP	0.123

Sequence	shrunken log2 fold change
RRIRMRPPRLPRPRPRPSRYPRP	-0.173
RRIRKRPPRLPRPRPRPRCKPRP	0.00437
RRIRERPPRLPRPRPRPNGYPRP	-0.193
RRIRTRPPRLPRPRPRPGKEPRP	-0.00507
RRIRNRPPRLPRPRPRPKIGPRP	-0.0153
RRIRERPPRLPRPRPRPAVRPRP	0.00239
RRIRRRPPRLPRPRPRPFCKPRP	-0.188
RRIRARPPRLPRPRPRPVNWPRP	0.459
RRIRMRPPRLPRPRPRPHQPPRP	0.0274
RRIRMRPPRLPRPRPRPIRGPRP	-0.00871
RRIRQRPPRLPRPRPRPMDRPRP	0.0291
RRIRPRPPRLPRPRPRPDIQPRP	-0.222
RRIRSRPPRLPRPRPRPYTTPRP	-0.0205
RRIRRRPPRLPRPRPRPNLDPRP	-0.152
RRIRYRPPRLPRPRPRPVYSPRP	4.05
RRIRSRPPRLPRPRPRPHFFPRP	-0.0717
RRIRQRPPRLPRPRPRPKDRPRP	-0.115
RRIRLRPPRLPRPRPRPPIAPRP	0.192
RRIRARPPRLPRPRPRPDECPRP	-0.0409
RRIRTRPPRLPRPRPRPLWLPRP	0.165
RRIRSRPPRLPRPRPRPGWKPRP	0.0342
